Data as given in PMC3701577, “Characterization of DNA Binding Property of the HIV-1 Host Factor and Tumor Suppressor Protein Integrase Interactor 1 (INI1/hSNF5)”.

T1: SNR1 DBD, SNR1(90-167) (Drosophila melanogaster, UniProt Q7K0F9 90-167)
T1 sequence: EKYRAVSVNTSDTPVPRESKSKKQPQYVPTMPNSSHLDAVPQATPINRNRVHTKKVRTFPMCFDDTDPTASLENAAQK


Assays:
[1] = biological target: INI1 DNA binding domain (INI1/hSNF5 amino acids 105-183) (human) (UniProt Q12824); assay: AUC; sedimentation equilibrium, 60 µM INI1 DBD (monomer concentration), 4°C, 13,000-28,000 rpm, 20 mM HEPES-KOH pH 7.2, 100 mM KCl, 5-7% glycerol, 1 mM DTT, absorbance at 280 nm; species analysis in SEDPHAT
[2] = biological target: INI1 DBD dimer, INI1(105-183) (human, UniProt Q12824 105-183); assay: ITC; 30 uM dimer, 325 uM DNA in syringe; sequential model, first binding event; ITC at 25 C (buffer not stated in material; protein dialyzed in 20 mM HEPES pH 7.2, 100 mM KCl, 10% glycerol, 0.1 mM EDTA, 1 mM DTT); pull-down in 20 mM HEPES pH 7.2, 100 mM KCl, 5% glycerol, 1 mM DTT, RT 30 min then ice; details: protein: recombinant; tags: His tag (pET28a), 24-aa N-terminal extension; chain copies: 2; 5' overhang 2 nt on strand 1 (AC)
Chain of INI1 DBD dimer, INI1(105-183) (Q12824 105-183): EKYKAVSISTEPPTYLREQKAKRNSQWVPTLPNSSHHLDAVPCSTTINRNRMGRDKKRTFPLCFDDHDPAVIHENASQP

INI1 DBD, INI1(105-183) = INI1 DBD, INI1(105-183) (human, UniProt Q12824 105-183); assay: ITC; 10 uM monomer, 55 uM DNA in syringe; one-site, N=0.49; ITC at 25 C (buffer not stated in material; protein dialyzed in 20 mM HEPES pH 7.2, 100 mM KCl, 10% glycerol, 0.1 mM EDTA, 1 mM DTT); pull-down in 20 mM HEPES pH 7.2, 100 mM KCl, 5% glycerol, 1 mM DTT, RT 30 min then ice; details: protein: recombinant; tags: His tag (pET28a), 24-aa N-terminal extension; 5' overhang 2 nt on strand 1 (AC)
Chain of INI1 DBD, INI1(105-183) (Q12824 105-183): as above

SNR1 DBD, SNR1(90-167) = biological target: T1, SNR1 DBD, SNR1(90-167); assay: Ni-NTA pull-down; 55 uM dimer, 110 uM DNA; ITC at 25 C (buffer not stated in material; protein dialyzed in 20 mM HEPES pH 7.2, 100 mM KCl, 10% glycerol, 0.1 mM EDTA, 1 mM DTT); pull-down in 20 mM HEPES pH 7.2, 100 mM KCl, 5% glycerol, 1 mM DTT, RT 30 min then ice; details: protein: recombinant; tags: His tag (pET28a), 37-aa N-terminal extension; chain copies: 2; 5' overhang 2 nt on strand 1 (AC)

Molecule | stoichiometry N [1] | Kd [2] | Kd (INI1 DBD, INI1(105-183)) | binding result (SNR1 DBD, SNR1(90-167))
INI1 DNA binding domain (INI1/hSNF5 amino acids 105-183) (from UniProt Q12824 105-183) (domain or fragment) | 2 | – | – | –
U5 HIV-1 LTR DNA (U5.4/U5.5) (dsDNA) DNA 1: ACTGCTAGAGATTTTCCGGATCC DNA 2: GGATCCGGAAAATCTCTAGCA | – | 222 ± 51.8 µM | 0.94 ± 0.02 µM | binds
